{
  "source": "patent US20040072753",
  "key": {"[1]": {"system": "Aβ 1-40"}, "[2]": {"system": "Aβ 1-42"}, "[3]": {"system": "T1, Aβ 25-35", "T1 sequence": "GSNKGAIIGLM"}, "[4]": {"system": "T2, histone H1 peptide substrate PKTPKKAKKL", "T2 sequence": "PKTPKKAKKL"}},
  "data": [
    {"substance": "recombinant p34-cdc2/cyclin B1 (Promega)", "values": [
      {"measurement": "incorporation of 32P from γ32P-ATP", "setting": "[1]", "result": "Aβ 1-42, Aβ 1-40 and Aβ 25-35 incorporated 32P from γ32P-ATP"},
      {"measurement": "incorporation of 32P from γ32P-ATP", "setting": "[2]", "result": "Aβ 1-42, Aβ 1-40 and Aβ 25-35 incorporated 32P from γ32P-ATP"},
      {"measurement": "incorporation of 32P from γ32P-ATP", "setting": "[3]", "result": "Aβ 1-42, Aβ 1-40 and Aβ 25-35 incorporated 32P from γ32P-ATP"},
      {"measurement": "Michaelis constant (KM) for the phosphorylation", "setting": "[4]", "result": "a KM of 2.7 µM for the H1 peptide substrate"}
    ]}
  ]
}
